Results as given in patent publication US20070196354A1, “Method of treating diabetes by inhibiting degradation of at least one of crebl1, atf6, and hnf-4 alpha by htra” (priority 2003, published 2007).

T1: ATF6 (SEQ ID NO: 18) with c-Myc-tag ligated at the N-terminal
T1 chain: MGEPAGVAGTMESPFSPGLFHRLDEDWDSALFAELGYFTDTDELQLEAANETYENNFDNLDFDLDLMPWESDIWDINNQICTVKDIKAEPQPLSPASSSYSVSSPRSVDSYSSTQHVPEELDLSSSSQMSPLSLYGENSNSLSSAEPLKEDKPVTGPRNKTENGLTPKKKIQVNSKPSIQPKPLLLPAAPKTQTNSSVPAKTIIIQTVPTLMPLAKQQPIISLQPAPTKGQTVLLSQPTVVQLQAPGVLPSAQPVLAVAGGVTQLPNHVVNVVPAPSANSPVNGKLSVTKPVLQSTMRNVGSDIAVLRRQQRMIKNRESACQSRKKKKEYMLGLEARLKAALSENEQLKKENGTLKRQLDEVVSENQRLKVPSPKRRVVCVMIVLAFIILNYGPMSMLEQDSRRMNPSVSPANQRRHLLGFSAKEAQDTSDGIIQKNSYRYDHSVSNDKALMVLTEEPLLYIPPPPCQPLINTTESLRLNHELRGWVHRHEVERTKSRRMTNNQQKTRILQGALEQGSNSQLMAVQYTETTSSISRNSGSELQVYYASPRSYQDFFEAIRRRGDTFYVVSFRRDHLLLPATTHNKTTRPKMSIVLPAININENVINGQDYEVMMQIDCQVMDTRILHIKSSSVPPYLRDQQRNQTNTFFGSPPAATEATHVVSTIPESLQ

T2: CREBL1 (SEQ ID NO: 16) with c-Myc-tag ligated at the N-terminal
T2 chain: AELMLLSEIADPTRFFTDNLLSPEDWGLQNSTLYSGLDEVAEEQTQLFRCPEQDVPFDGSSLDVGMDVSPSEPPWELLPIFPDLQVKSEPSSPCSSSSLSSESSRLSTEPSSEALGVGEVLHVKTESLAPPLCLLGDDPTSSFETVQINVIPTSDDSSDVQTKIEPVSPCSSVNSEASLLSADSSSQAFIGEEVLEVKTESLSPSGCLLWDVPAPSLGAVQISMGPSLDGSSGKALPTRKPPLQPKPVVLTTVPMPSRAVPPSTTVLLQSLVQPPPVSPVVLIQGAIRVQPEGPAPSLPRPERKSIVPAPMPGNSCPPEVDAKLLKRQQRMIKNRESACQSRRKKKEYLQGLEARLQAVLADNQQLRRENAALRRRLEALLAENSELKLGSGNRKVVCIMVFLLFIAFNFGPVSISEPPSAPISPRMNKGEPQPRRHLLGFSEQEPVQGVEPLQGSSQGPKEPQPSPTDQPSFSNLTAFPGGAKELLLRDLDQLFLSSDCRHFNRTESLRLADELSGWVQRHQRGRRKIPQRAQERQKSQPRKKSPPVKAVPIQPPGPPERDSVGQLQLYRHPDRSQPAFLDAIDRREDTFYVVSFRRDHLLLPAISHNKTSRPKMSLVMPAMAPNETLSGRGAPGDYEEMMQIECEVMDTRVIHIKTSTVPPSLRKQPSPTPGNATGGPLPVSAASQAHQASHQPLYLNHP

T3: HNF-4α (SEQ ID NO: 35) with N-terminal tag, as used in Example 6
T3 chain: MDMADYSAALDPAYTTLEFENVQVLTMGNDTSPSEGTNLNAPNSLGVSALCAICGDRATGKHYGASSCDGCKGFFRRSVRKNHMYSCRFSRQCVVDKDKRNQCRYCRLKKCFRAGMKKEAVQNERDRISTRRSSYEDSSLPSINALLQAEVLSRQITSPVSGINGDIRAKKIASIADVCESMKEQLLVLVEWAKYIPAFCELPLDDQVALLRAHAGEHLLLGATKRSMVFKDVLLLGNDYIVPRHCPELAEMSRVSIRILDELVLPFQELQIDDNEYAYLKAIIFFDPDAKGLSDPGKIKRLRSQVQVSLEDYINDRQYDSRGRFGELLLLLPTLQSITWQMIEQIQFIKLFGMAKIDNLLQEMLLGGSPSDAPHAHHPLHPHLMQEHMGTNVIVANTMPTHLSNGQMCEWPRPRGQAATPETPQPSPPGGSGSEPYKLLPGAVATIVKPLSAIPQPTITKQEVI

T4: biotinylated CREBL1 (N-terminal tagged-CREBL1 with biotinylated lysine residue within the protein)
T4 chain: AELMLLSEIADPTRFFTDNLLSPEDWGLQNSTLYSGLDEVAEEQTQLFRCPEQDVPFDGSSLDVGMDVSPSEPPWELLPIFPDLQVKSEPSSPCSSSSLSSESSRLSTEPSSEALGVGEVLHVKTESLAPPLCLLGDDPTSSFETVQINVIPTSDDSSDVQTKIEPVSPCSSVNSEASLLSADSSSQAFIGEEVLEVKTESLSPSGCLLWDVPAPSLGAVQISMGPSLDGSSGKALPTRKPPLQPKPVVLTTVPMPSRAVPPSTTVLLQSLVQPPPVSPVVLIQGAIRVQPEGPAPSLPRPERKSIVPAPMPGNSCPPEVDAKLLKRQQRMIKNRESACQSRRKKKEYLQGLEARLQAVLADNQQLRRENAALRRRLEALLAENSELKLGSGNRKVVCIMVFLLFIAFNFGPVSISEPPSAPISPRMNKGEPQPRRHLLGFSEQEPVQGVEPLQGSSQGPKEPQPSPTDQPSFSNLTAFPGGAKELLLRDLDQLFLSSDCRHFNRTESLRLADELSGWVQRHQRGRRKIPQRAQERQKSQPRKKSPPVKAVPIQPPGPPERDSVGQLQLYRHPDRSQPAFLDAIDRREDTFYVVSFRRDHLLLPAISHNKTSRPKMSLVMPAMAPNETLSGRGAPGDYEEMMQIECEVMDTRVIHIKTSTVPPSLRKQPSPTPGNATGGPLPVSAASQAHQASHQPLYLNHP

B1: mature HtrA2 (SEQ ID NO: 4) with histidine (His)-tag ligated at the C-terminal (protein)
chain: MAVPSPPPASPRSQYNFIADVVEKTAPAVVYIEILDRHPFLGREVPISNGSGFVVAADGLIVTNAHVVADRRRVRVRLLSGDTYEAVVTAVDPVADIATLRIQTKEPLPTLPLGRSADVRQGEFVVAMGSPFALQNTITSGIVSSAQRPARDLGLPQTNVEYIQTDAAIDFGNSGGPLVNLDGEVIGVNTMKVTAGISFAIPSDRLREFLHRGEKKNSSSGISGSQRRYIGVMMLTLSPSILAELQLREPSFPDVQHGVLIHKVILGSPAHRAGLRPGDVILAIGEQMVQNAEDVYEAVRTQSQLAVQIRRGRETLTLYVTPEVTE
B2: mature HtrA2 (S306A) (SEQ ID NO: 6) with histidine (His)-tag ligated at the C-terminal (protein)
chain: MAVPSPPPASPRSQYNFIADVVEKTAPAVVYIEILDRHPFLGREVPISNGSGFVVAADGLIVTNAHVVADRRRVRVRLLSGDTYEAVVTAVDPVADIATLRIQTKEPLPTLPLGRSADVRQGEFVVAMGSPFALQNTITSGIVSSAQRPARDLGLPQTNVEYIQTDAAIDFGNAGGPLVNLDGEVIGVNTMKVTAGISFAIPSDRLREFLHRGEKKNSSSGISGSQRRYIGVMMLTLSPSILAELQLREPSFPDVQHGVLIHKVILGSPAHRAGLRPGDVILAIGEQMVQNAEDVYEAVRTQSQLAVQIRRGRETLTLYVTPEVTE

How the values were obtained:
[1] = biological target: T1, ATF6 (SEQ ID NO: 18) with c-Myc-tag …
[2] = biological target: T2, CREBL1 (SEQ ID NO: 16) with c-Myc-tag …
[3] = biological target: T3, HNF-4α (SEQ ID NO: 35) with N-terminal …
[4] = biological target: T4, biotinylated CREBL1 (N-terminal …)

Row | Protein | in vitro protease assay; western blotting of ATF6 band [1] | in vitro protease assay; western blotting of CREBL1 band [2] | in vitro protease assay; western blotting of HNF-4α band [3] | in vitro protease assay; degradation pattern of biotinylated CREBL1 by western blotting (streptavidin HRP) [4]
1 | B1 | the band of ATF6 was reduced significantly after the reaction of active HtrA2 with ATF6 for four hours (4 h) or overnight (O/N) | the band of CREBL1 was reduced significantly after the reaction of active HtrA2 with CREBL1 for overnight (O/N) | the band of HNF-4α was reduced significantly after the reaction of active HtrA2 with HNF-4α for overnight (O/N) | remarkable reduction of the band of biotinylated CREBL1 was observed, and further, the band that was supposed to be a degradation product of CREBL1 was detected around 50 kDa
2 | B2 | the degradation of CREBL1 and ATF6 by inactive HtrA2 (mature HtrA2 (S306A)) was not observed | the degradation of CREBL1 and ATF6 by inactive HtrA2 (mature HtrA2 (S306A)) was not observed | the degradation of HNF-4α by inactive HtrA2 (mature HtrA2 (S306A)) was not observed | the degradation of CREBL1 by inactive HtrA2 (mature HtrA2 (S306A)) was not observed, and the band around 50 kDa as above was not detected
